Bridge positions count the residues as written; N and C are the ends. Square brackets hold non-standard residues; d marks the D form. Ends that are not written are not given here. * marks the point of attachment. Acetyl(2-(4-imidazolyl)) = O=C(Cc1c[nH]cn1)*; Aib = CC(C)(N)C(=O)O
Assays:
Test in all cases: cell-based or functional assay
human GIP receptor = target: T1, human GIP receptor (human, UniProt P48546 22-466)
T1 sequence (looked up): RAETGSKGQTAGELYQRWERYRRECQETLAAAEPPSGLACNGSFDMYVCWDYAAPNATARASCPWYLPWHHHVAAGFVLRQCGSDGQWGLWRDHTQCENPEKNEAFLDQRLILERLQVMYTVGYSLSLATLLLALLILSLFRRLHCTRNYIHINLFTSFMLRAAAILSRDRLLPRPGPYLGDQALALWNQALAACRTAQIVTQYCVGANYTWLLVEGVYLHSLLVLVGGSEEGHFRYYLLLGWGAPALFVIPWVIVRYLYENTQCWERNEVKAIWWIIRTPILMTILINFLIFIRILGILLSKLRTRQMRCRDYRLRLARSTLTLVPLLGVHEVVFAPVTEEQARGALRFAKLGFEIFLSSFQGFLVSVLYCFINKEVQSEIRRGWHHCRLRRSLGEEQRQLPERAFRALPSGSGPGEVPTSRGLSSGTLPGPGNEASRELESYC

human GCG receptor = human GCG receptor (human, UniProt P47871 26-477)
human GLP-1 receptor = human GLP-1 receptor (human, UniProt P43220 24-463)

Chain of human GCG receptor (P47871 26-477): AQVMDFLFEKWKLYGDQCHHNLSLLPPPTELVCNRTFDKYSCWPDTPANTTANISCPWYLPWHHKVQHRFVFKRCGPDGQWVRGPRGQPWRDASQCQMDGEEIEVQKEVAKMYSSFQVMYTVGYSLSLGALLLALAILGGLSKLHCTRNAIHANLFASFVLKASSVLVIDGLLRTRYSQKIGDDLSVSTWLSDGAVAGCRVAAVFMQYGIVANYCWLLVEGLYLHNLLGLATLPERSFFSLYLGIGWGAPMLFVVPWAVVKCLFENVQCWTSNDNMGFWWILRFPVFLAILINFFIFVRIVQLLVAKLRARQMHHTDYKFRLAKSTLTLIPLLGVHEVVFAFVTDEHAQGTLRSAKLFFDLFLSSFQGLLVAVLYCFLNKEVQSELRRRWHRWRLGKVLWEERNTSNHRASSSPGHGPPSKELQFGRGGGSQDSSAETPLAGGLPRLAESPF

Y[Aib]QGTFTSDYSKYLDECRAKDFVQWLLDHHPSSGQPPPS (bridge 16-20) [triple agonist of SEQ ID NO: 66]
In vitro activity (%) compared with native peptide, vs GIP (human GIP receptor): 17.2%
In vitro activity (%) compared with native peptide, vs Glucagon (human GCG receptor): 172%
In vitro activity (%) compared with native peptide, vs GLP-1 (human GLP-1 receptor): 15.8%

Y[Aib]QGTFTSDYSKYLDECAAKDFVQWLLDHHPSSGQPPPS (bridge 16-20) [triple agonist of SEQ ID NO: 67]
In vitro activity (%) compared with native peptide, vs GIP (human GIP receptor): 39.8%
In vitro activity (%) compared with native peptide, vs Glucagon (human GCG receptor): 46.2%
In vitro activity (%) compared with native peptide, vs GLP-1 (human GLP-1 receptor): 28.5%

B1: triple agonist of SEQ ID NO: 82 (peptide)
peptide: {Acetyl(2-(4-imidazolyl))}-[Aib]QGTFTSDYSKYLDEKRQKEFVQWLLDTC
modifications: bridge 15-19; numbers in words are those of the source; also: ring between positions 16 and 20, type not given here
In vitro activity (%) compared with native peptide, vs GIP (human GIP receptor): < 0.1%
In vitro activity (%) compared with native peptide, vs Glucagon (human GCG receptor): 1.1%
In vitro activity (%) compared with native peptide, vs GLP-1 (human GLP-1 receptor): 9.5%

H[Aib]EGTFTSDYSIAMDEIHQKDFVNWLLAQKC (bridge 16-20; not fully specified) [triple agonist of SEQ ID NO: 79]
In vitro activity (%) compared with native peptide, vs GIP (human GIP receptor): 1.4%
In vitro activity (%) compared with native peptide, vs Glucagon (human GCG receptor): 4.9%
In vitro activity (%) compared with native peptide, vs GLP-1 (human GLP-1 receptor): 41.5%

Y[Aib]QGTFTSDYSKCLDEKAAKEFVQWLLDHHPSSGQPPPS (bridge 16-20) [triple agonist of SEQ ID NO: 68]
In vitro activity (%) compared with native peptide, vs GIP (human GIP receptor): 107%
In vitro activity (%) compared with native peptide, vs Glucagon (human GCG receptor): 8.8%
In vitro activity (%) compared with native peptide, vs GLP-1 (human GLP-1 receptor): 27.9%

Y[Aib]QGTFTSDYSKYLDEKAAKDFVQWLLDHHPSSGQPPPSC (bridge 16-20; also: ring between positions 16 and 20, type not given here) [triple agonist of SEQ ID NO: 77]
In vitro activity (%) compared with native peptide, vs GIP (human GIP receptor): 35.5%
In vitro activity (%) compared with native peptide, vs Glucagon (human GCG receptor): 12.2%
In vitro activity (%) compared with native peptide, vs GLP-1 (human GLP-1 receptor): 38.7%

Y[Aib]QGTFTSDYSKYLDECAAKEFVQWLLDHHPSSGQPPPS (bridge 16-20) [triple agonist of SEQ ID NO: 64]
In vitro activity (%) compared with native peptide, vs GIP (human GIP receptor): 92.9%
In vitro activity (%) compared with native peptide, vs Glucagon (human GCG receptor): 60.1%
In vitro activity (%) compared with native peptide, vs GLP-1 (human GLP-1 receptor): 64.6%

[Acetyl(2-(4-imidazolyl))][Aib]EGTFTSDYSIAMDEIHQKDFVNWLLAQC (bridge 16-20; not fully specified) [triple agonist of SEQ ID NO: 83]
In vitro activity (%) compared with native peptide, vs GIP (human GIP receptor): 0.4%
In vitro activity (%) compared with native peptide, vs Glucagon (human GCG receptor): 1.3%
In vitro activity (%) compared with native peptide, vs GLP-1 (human GLP-1 receptor): 47.3%

{Acetyl(2-(4-imidazolyl))}-[Aib]QGTFTSDYSKCLDEKRAKEFVQWLLDHHPSSGQPPPS (bridge 15-19) [triple agonist of SEQ ID NO: 74]
In vitro activity (%) compared with native peptide, vs GIP (human GIP receptor): 1%
In vitro activity (%) compared with native peptide, vs Glucagon (human GCG receptor): 0.9%
In vitro activity (%) compared with native peptide, vs GLP-1 (human GLP-1 receptor): 12.9%

Y[Aib]QGTFTSDYSKYLDERACKDFVQWLLDHHPSSGQPPPS (bridge 16-20) [triple agonist of SEQ ID NO: 71]
In vitro activity (%) compared with native peptide, vs GIP (human GIP receptor): 94.7%
In vitro activity (%) compared with native peptide, vs Glucagon (human GCG receptor): 12.7%
In vitro activity (%) compared with native peptide, vs GLP-1 (human GLP-1 receptor): 90.1%

{Acetyl(2-(4-imidazolyl))}-[Aib]QGTFTSDYSKYLDECRAKEFVQWLLDHHPSSGQPPPS (bridge 15-19) [triple agonist of SEQ ID NO: 73]
In vitro activity (%) compared with native peptide, vs GIP (human GIP receptor): 3%
In vitro activity (%) compared with native peptide, vs Glucagon (human GCG receptor): 5.4%
In vitro activity (%) compared with native peptide, vs GLP-1 (human GLP-1 receptor): 22.6%

H[Aib]QGTFTSDVSKYLDGQAAQEFVAWLLKGC [triple agonist of SEQ ID NO: 8]
In vitro activity (%) compared with native peptide, vs GIP (human GIP receptor): < 0.1%
In vitro activity (%) compared with native peptide, vs Glucagon (human GCG receptor): 0.1%
In vitro activity (%) compared with native peptide, vs GLP-1 (human GLP-1 receptor): 14.2%

[Acetyl(2-(4-imidazolyl))][Aib]QGTFTSDKSKYLDERAAQDFVQWLLDGGPSSGAPPPS (not fully specified) [triple agonist of SEQ ID NO: 62]
In vitro activity (%) compared with native peptide, vs GIP (human GIP receptor): < 0.1%
In vitro activity (%) compared with native peptide, vs Glucagon (human GCG receptor): < 0.1%
In vitro activity (%) compared with native peptide, vs GLP-1 (human GLP-1 receptor): 5.2%

H[Aib]QGTFTSDVSKYLDGQAAKEFVAWLLKGC [triple agonist of SEQ ID NO: 7]
In vitro activity (%) compared with native peptide, vs GIP (human GIP receptor): < 0.1%
In vitro activity (%) compared with native peptide, vs Glucagon (human GCG receptor): < 0.1%
In vitro activity (%) compared with native peptide, vs GLP-1 (human GLP-1 receptor): 13.7%

Y[Aib]QGTFTSDYSKCLDERAAKEFVQWLLDHHPSSGQPPPS (bridge 16-20) [triple agonist of SEQ ID NO: 69]
In vitro activity (%) compared with native peptide, vs GIP (human GIP receptor): 62.8%
In vitro activity (%) compared with native peptide, vs Glucagon (human GCG receptor): 9.6%
In vitro activity (%) compared with native peptide, vs GLP-1 (human GLP-1 receptor): 24.3%

H[Aib]QGTFTSDYSKYLDEKRQKEFVQWLLDTKC (bridge 16-20; also: ring between positions 16 and 20, type not given here) [triple agonist of SEQ ID NO: 78]
In vitro activity (%) compared with native peptide, vs GIP (human GIP receptor): 0.12%
In vitro activity (%) compared with native peptide, vs Glucagon (human GCG receptor): 14%
In vitro activity (%) compared with native peptide, vs GLP-1 (human GLP-1 receptor): 51%

Y[Aib]QGTFTSDCSKYLDERAAKDFVQWLLDHHPSSGQPPPS (bridge 16-20) [triple agonist of SEQ ID NO: 72]
In vitro activity (%) compared with native peptide, vs GIP (human GIP receptor): 1.6%
In vitro activity (%) compared with native peptide, vs Glucagon (human GCG receptor): 1%
In vitro activity (%) compared with native peptide, vs GLP-1 (human GLP-1 receptor): 11.5%

Y[Aib]QGTFTSDYSKCLDEKRAKDFVQWLLDHHPSSGQPPPS (bridge 16-20) [triple agonist of SEQ ID NO: 70]
In vitro activity (%) compared with native peptide, vs GIP (human GIP receptor): 64.4%
In vitro activity (%) compared with native peptide, vs Glucagon (human GCG receptor): 71.3%
In vitro activity (%) compared with native peptide, vs GLP-1 (human GLP-1 receptor): 15.1%

Y[Aib]QGTFTSDYSKYLDEKRAKDFVQWLLDHHPSSGQPPPSC (bridge 16-20; also: ring between positions 16 and 20, type not given here) [triple agonist of SEQ ID NO: 76]
In vitro activity (%) compared with native peptide, vs GIP (human GIP receptor): 11.7%
In vitro activity (%) compared with native peptide, vs Glucagon (human GCG receptor): 47.6%
In vitro activity (%) compared with native peptide, vs GLP-1 (human GLP-1 receptor): 10.3%

B2: triple agonist of SEQ ID NO: 81 (peptide)
peptide: {Acetyl(2-(4-imidazolyl))}-[Aib]QGTFTSDYSKYLDEKRQKEFVQWLLNTC
modifications: bridge 15-19; numbers in words are those of the source; also: ring between positions 16 and 20, type not given here
In vitro activity (%) compared with native peptide, vs GIP (human GIP receptor): < 0.1%
In vitro activity (%) compared with native peptide, vs Glucagon (human GCG receptor): 0.3%
In vitro activity (%) compared with native peptide, vs GLP-1 (human GLP-1 receptor): 7.8%

Y[Aib]QGTFTSDYSKYLDEKAAKEFVQWLLDHHPSSGQPPPSC (bridge 16-20) [triple agonist of SEQ ID NO: 75]
In vitro activity (%) compared with native peptide, vs GIP (human GIP receptor): 18%
In vitro activity (%) compared with native peptide, vs Glucagon (human GCG receptor): 8.5%
In vitro activity (%) compared with native peptide, vs GLP-1 (human GLP-1 receptor): 35.1%

[Acetyl(2-(4-imidazolyl))][Aib]QGTFTSDYSIAMDEIACKDFVNWLLNTK (bridge 16-20; not fully specified) [triple agonist of SEQ ID NO: 61]
In vitro activity (%) compared with native peptide, vs GIP (human GIP receptor): 2.8%
In vitro activity (%) compared with native peptide, vs Glucagon (human GCG receptor): < 0.1%
In vitro activity (%) compared with native peptide, vs GLP-1 (human GLP-1 receptor): 59.8%

[Acetyl(2-(4-imidazolyl))][Aib]QGTFTSDCSKYLDERAAQDFVQWLLDGGPSSGAPPPS (not fully specified) [triple agonist of SEQ ID NO: 63]
In vitro activity (%) compared with native peptide, vs GIP (human GIP receptor): < 0.1%
In vitro activity (%) compared with native peptide, vs Glucagon (human GCG receptor): < 0.1%
In vitro activity (%) compared with native peptide, vs GLP-1 (human GLP-1 receptor): 15.3%

H[Aib]QGTFTSDYSKCLDEKRAKEFVQWLLDHHPSSGQPPPS (bridge 16-20) [triple agonist of SEQ ID NO: 65]
In vitro activity (%) compared with native peptide, vs GIP (human GIP receptor): 11.6%
In vitro activity (%) compared with native peptide, vs Glucagon (human GCG receptor): 25.2%
In vitro activity (%) compared with native peptide, vs GLP-1 (human GLP-1 receptor): 95.4%
